Laboratory results published in patent US20250326840A1 (QURE BIOTECHNOLOGY SHANGHAI, published 2025).

T1: QP538 (SIRPαV9-mFC(mIgG2a)) (human, limits assumed)
T1 construct: also called human SIRPα V9 recombinant protein (QP538)
T1 chain: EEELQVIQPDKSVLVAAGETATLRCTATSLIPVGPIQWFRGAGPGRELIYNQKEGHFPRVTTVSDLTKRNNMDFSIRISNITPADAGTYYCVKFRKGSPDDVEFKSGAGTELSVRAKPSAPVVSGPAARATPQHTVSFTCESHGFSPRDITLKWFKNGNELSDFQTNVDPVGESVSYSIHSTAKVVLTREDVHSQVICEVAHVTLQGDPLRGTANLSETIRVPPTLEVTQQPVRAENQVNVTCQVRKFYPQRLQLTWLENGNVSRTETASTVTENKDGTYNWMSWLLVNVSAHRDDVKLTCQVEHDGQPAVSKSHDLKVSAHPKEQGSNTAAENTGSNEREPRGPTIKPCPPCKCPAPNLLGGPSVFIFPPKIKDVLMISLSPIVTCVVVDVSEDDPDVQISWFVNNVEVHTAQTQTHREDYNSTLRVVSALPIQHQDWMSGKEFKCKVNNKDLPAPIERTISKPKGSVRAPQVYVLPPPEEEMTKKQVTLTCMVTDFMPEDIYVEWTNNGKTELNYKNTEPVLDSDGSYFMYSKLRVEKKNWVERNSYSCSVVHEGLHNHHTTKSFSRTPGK

T2: QP535 (SIRPαV6-mFC(mIgG2a)) (human, limits assumed)
T2 construct: also called human SIRPα V6 recombinant protein (QP535)
T2 chain: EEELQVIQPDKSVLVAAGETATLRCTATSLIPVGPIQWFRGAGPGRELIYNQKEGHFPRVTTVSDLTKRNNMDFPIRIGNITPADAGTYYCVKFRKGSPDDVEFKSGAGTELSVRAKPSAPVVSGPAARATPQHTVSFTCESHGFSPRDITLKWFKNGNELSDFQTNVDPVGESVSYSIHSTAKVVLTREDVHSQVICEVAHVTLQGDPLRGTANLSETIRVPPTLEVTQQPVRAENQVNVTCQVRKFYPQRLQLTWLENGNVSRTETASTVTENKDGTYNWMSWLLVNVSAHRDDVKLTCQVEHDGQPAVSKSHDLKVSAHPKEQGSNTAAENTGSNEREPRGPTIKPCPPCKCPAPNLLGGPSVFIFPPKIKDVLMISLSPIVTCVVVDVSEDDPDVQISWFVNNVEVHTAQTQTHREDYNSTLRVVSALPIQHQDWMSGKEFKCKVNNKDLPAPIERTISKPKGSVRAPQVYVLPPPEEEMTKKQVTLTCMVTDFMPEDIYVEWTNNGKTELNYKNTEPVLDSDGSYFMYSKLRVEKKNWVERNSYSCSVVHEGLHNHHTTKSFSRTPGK

T3: SIRPα V6 fusion Fc (mouse IgG2a) (human, limits assumed)
T3 chain: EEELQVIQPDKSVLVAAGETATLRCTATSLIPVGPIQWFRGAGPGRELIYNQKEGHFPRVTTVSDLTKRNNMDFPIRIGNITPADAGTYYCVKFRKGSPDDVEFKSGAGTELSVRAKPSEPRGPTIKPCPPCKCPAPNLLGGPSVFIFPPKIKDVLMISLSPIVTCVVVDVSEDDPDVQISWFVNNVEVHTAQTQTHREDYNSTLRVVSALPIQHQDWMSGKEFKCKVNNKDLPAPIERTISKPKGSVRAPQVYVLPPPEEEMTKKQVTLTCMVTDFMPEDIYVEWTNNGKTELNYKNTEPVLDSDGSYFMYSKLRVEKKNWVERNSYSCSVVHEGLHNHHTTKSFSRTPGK

T4: SIRPα V5 fusion Fc (mouse IgG2a) (human, limits assumed)
T4 chain: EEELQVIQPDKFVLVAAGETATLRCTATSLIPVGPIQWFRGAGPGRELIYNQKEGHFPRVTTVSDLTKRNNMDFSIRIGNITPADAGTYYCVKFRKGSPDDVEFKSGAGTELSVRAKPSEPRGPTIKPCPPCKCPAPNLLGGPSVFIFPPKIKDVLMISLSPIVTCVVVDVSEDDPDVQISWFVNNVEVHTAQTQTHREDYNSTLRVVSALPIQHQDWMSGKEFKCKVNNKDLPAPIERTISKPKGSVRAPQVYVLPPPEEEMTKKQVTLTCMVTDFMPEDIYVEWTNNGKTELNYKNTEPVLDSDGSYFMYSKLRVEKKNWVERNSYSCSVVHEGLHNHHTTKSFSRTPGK

T5: SIRPα V1 fusion Fc (mouse IgG2a) (human, limits assumed)
T5 chain: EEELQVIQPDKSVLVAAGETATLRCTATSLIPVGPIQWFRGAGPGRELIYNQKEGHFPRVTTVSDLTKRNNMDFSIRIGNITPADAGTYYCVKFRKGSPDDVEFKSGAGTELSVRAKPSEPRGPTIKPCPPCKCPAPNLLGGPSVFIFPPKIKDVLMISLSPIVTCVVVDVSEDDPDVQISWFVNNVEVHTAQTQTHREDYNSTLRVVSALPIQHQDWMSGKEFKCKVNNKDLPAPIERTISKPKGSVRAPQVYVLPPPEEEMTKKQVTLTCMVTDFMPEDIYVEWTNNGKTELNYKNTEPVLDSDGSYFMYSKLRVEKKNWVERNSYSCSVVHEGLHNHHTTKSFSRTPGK


Experiments:
[1] = target: T1, QP538 (SIRPαV9-mFC(mIgG2a)); assay: ELISA, human SIRPα V9 recombinant protein (QP538) coated, HRP anti-human Fc detection
[2] = target: T2, QP535 (SIRPαV6-mFC(mIgG2a)); assay: ELISA, human SIRPα V6 recombinant protein (QP535) coated, HRP anti-human Fc detection
[3] = target: T3, SIRPα V6 fusion Fc (mouse IgG2a); assay: ELISA, SIRPα V6-mouse IgG2a Fc coated, anti-hFab detection; unit from the x axis Log(Conc.(nM))
[4] = target: T6, human SIRPα V1 on U-937 cells (human, UniProt P78324 31-504); assay: FACS on U-937 cells
T6 construct: whole, on cells

[5] = target: T7, human SIRPα V2 on THP-1 cells (human, UniProt P78324 31-504); assay: FACS on THP-1 cells
T7 construct: whole, on cells; also called THP-1 (human SIRPα V2)

[6] = target: T4, SIRPα V5 fusion Fc (mouse IgG2a); assay: ELISA, SIRPα V5-mouse IgG2a Fc coated, anti-hFab detection; unit from the x axis Log(Conc.(nM))
[7] = target: T5, SIRPα V1 fusion Fc (mouse IgG2a); assay: ELISA, SIRPα V1-mouse IgG2a Fc coated, anti-hFab detection; unit from the x axis Log(Conc.(nM))
QP095 (human SIRPα V2 …) = target: T8, QP095 (human SIRPα V2 ECD(E31-R370)-mFC(IgG2a)) (human); assay: ELISA, human SIRPα V2 recombinant protein (QP095) coated, HRP anti-human Fc detection
T8 construct: also called human SIRPα V2 recombinant protein (QP095)

T7 sequence (P78324 other isoform, or with tags, fused parts or gaps limits assumed): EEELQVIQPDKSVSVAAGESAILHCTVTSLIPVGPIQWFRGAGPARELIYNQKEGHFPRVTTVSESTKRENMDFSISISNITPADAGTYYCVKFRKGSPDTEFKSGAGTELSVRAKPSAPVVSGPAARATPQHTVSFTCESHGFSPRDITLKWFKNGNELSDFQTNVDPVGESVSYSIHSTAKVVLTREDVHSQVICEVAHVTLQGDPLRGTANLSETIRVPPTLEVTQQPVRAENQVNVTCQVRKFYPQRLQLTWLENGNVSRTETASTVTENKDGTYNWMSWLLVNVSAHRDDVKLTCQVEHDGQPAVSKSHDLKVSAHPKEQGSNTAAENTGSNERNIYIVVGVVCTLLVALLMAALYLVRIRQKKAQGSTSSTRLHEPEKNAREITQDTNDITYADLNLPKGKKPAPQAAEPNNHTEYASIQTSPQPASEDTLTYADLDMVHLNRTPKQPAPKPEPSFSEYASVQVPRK

Binder | EC50 [1] [nM] | EC50 [2] [nM] | EC50 [3] [nM] | EC50 [4] [nM] | binding result [5] | EC50 [6] [nM] | EC50 [7] [nM] | EC50 [5] [nM] | EC50 (QP095 (human SIRPα V2 …)) [nM]
QP32700279 (antibody, human IgG1, kappa, L234A L235A, V domains shown, also called SIRPα monoclonal antibody CHO71) VH: QVQLVQSGAEVKKPGASVKVSCKASGYTFTNYWINWVRQAPGQGLEWIAMIDPSDSETHYNQIFKDRATLTTDTSTSTAYMELRSLRSDDTAVYYCAMDYGSLYAMDYWGRGTLVTVSS VL: DIVLTQSPDSLAVSLGERATINCRASQSVRSSGYNWIFWYQQKPGQPPKLLIYLASNRDSGVPDRFSGSGSGTDFTLTISSLQAEDVAVYYCQHSRELPTFGQGTKLEIKR | 0.361 | 0.224 |  | 0.076 |  |  |  | 0.0743 | 0.186
QP37503751 (1H9 analog) (antibody, human IgG1, kappa, N297A, V domains shown, also called hz1H9 hIgG1(N297A)) VH: QVQLVQSGAEVKKPGASVKVSCKASGYTFTSYWITWVKQAPGQGLEWIGDIYPGSGSTNHIEKFKSKATLTVDTSISTAYMELSRLRSDDTAVYYCATGYGSSYGYFDYWGQGTLVTVSS VL: DIQMTQSPSSLSASVGDRVTITCRASENIYSYLAWYQQKPGKAPKLLIYTAKTLAEGVPSRFSGSGSGTDFTLTISSLQPEDFATYYCQHQYGPPFTFGQGTKLEIKR | 0.438 | 0.273 |  | 0.158 |  |  |  | 0.21 | 0.218

The remaining lines, values ahead:

EC50 [1] [nM] | EC50 [2] [nM] | EC50 [3] [nM] | EC50 [4] [nM] | binding result [5] | EC50 [6] [nM] | EC50 [7] [nM] | EC50 [5] [nM] | EC50 (QP095 (human SIRPα V2 …)) [nM] | Binder
0.854 | 0.884 | 0.114 | 0.581 | no binding | 0.13 | 0.154 |  |  | QP250251 (18D5 analog) (antibody, human IgG4 S228P, kappa, V domains shown, also called SIRPα antibody 18D5 from OSE) VH: QVQLQQPGAELVRPGSSVKLSCKASGYTFTSYWVHWVKQRPIQGLEWIGNIDPSDSDTHYNQKFKDKASLTVDKSSSTAYMQLSSLTFEDSAVYYCVRGGTGTMAWFAYWGQGTLVTVSA VL: DVVMTQTPLSLPVSLGDQASISCRSSQSLVHSYGNTYLYWYLQKPGQSPKLLIYRVSNRFSGVPDRFSGSGSGTDFTLKISRVEAEDLGVYFCFQGTHVPYTFGSGTKLEIKR
 |  | 0.053 |  |  | 0.0691 | 0.0786 |  |  | QP256279 (antibody, human IgG4, V domains shown, Human IgG4 heavy constant region and kappa CL) VH: QVQLVQSGAEVKKPGASVKVSCKASGYTFTNYWINWVRQAPGQGLEWIAMIDPSDSETHYNQIFKDRATLTTDTSTSTAYMELRSLRSDDTAVYYCAMDYGSLYAMDYWGRGTLVTVSS VL: DIVLTQSPDSLAVSLGERATINCRASQSVRSSGYNWIFWYQQKPGQPPKLLIYLASNRDSGVPDRFSGSGSGTDFTLTISSLQAEDVAVYYCQHSRELPTFGQGTKLEIK
0.804 | 0.603 | 0.119 | 0.21 |  | 0.144 | 0.16 | 0.261 | 0.467 | QP026249 (KWAR23 analog) (antibody, human IgG4 S228P, kappa, also called KAWA23 analog; control antibody KWAR23 (QP026249), human IgG4) heavy: not shown light: QIVLTQSPAIMSASPGEKVTLTCSASSSVSSSYLYWYQQKPGSSPKLWIYSTSNLASGVPARFSGSGSGTSYSLTISSMEAEDAASYFCHQWSSYPRTFGAGTKLELKRTVAAPSVFIFPPSDEQLKSGTASVVCLLNNFYPREAKVQWKVDNALQSGNSQESVTEQDSKDSTYSLSSTLTLSKADYEKHKVYACEVTHQGLSSPVTKSFNRGEC
